From patent US20240000837A1

Target: HLA-C1 expressed in the tumor cell membrane (HLA class I on Panc0203 / HPAC tumor cells) (human)
Test: flow cytometry on Panc02.03 cells, PE-conjugated anti-Fc secondary staining

Substance: fusion protein encompassing the extracellular domain of KIR2DL2 linked to the Fc portion of an antibody (KIR2DL2-Fc) (from UniProt P43627 22-245) (Fc fusion)
- percent of cells bound: > 60%
